Data published in patent US11840557B2, “Wnt7 variants capable of activating g-protein coupled receptor (Gpr)124/Reck/frizzled/lipoprotein receptor-related protein (LRP)-mediated Wnt signaling” (UNIVERSITÉ LIBRE DE BRUXELLES, priority 2018, dated 2023).
Values belong to the molecule of their own block, whether it stands above or below them. Ends that are not written are not given here.

Legend:
Reck-CK-Fc = assay: Isothermal titration calorimetry (ITC) of synthetic Wnt linker peptides into recombinant Reck-CK-Fc; assay type: binding
Description: Reck-CK-Fc fusion proteins were recovered in serum-free FreeStyle 293 Expression Medium (Thermo Fisher Scientific, Waltham, Mass.) from the supernatant of HEK293T cell cultures 72 h post transfection with Lipofectamine 2000 (Life Technologies, Carlsbad, Calif.). After collection, the supernatants were either concentrated 50 times by centrifugation (GE Healthcare, Little Chalfont, UK) or submitted to Protein G affinity purification (Protein G Sepharose 4 Fast Flow, Sigma-Aldrich, St. Louis, Mo.). Protein purity was assessed using Coomassie blue staining after PAGE. Synthetic Wnt linker peptides were obtained from Chinapeptide Co., Ltd at purities over 90%.
ITC titrations were carried out on an Affinity ITC (TA Instruments). Prior to the measurement, Reck-CK-Fc and all Reck-CK-Fc fusions were dialyzed to Tris-NaCl buffer (50 mM Tris pH8, 300 mM NaCl). In each case Wnt-derived peptides were prepared with buffer from the last step of protein dialysis. The samples were filtered and degassed before being examined in the calorimeter and the titrations were performed 25° C. All the experiments consisted of injection of constant volumes of 2 μL of titrant into the cell (200 μL) with a stirring rate of 75 rpm. Nominal sample concentrations were between 20 μM and 40 μM in the cell and 400 μM to 1.0 mM in the syringe. Actual sample concentrations were determined after dialysis or buffer exchange by measurement of their absorption at 280 nm or the BCA method. All data were analyzed using the MicroCal Origin ITC 7.0, and NanoAnalyze software packages.

HA-Reck = biological target: T1, HA-Reck (Homo sapiens, UniProt O95980); assay: Proximity ligation assay (PLA), anti-V5/anti-HA, V5-tagged Wnt ligand and HA-Reck in GPR124−/−;RECK−/− cells; assay type: cell-based; conditions: GPR124−/−;RECK−/− cells co-expressing HA-Reck
T1 construct: expressed in transfected cells; host or cells: GPR124-/-;RECK-/- HEK293 (STF) cells, pCS2 / CMV promoter
T1 sequence (O95980 23-942): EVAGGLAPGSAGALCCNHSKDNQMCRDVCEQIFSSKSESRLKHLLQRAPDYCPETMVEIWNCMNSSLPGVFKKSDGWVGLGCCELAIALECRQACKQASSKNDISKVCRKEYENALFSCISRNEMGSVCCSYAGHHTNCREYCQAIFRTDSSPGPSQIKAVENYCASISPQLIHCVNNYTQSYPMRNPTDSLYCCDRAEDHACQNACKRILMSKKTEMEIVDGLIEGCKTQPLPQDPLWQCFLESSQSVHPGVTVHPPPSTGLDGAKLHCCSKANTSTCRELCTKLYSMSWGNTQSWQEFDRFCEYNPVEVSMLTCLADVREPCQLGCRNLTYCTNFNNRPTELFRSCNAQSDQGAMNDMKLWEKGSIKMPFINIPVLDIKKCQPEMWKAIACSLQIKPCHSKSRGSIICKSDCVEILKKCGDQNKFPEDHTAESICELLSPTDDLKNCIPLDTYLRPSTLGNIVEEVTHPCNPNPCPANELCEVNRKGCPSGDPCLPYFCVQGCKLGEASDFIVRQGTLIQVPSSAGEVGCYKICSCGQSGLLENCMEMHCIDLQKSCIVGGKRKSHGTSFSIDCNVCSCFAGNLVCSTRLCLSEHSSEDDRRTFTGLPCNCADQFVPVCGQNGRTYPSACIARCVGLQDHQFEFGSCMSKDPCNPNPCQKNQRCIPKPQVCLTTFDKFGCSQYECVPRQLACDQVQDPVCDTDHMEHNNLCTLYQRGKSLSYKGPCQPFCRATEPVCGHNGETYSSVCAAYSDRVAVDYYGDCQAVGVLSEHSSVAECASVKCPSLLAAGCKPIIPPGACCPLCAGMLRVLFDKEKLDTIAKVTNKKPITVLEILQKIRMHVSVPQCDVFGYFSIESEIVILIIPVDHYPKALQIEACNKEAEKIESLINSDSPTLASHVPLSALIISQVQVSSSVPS
Description: (§1) 1.7. Immunofluorescence and Proximity Ligation Assay Cells were grown in glass-coated chambers (IBIDI, Martinsried, Germany) and transfected after 24 h with Lipofectamine 2000 (Life Technologies, Carlsbad, Calif.). Cells were fixed with 4% paraformaldehyde for 10 min at room temperature (RT) 48 h post transfection. For immunofluorescence staining (IF), cells were blocked in 1% BSA-PBS for 30 min before being exposed to primary antibodies for 1 h at RT. After three PBS washes, cells were incubated with secondary antibodies for 1 h at RT. For anti-V5 staining of Wnt ligands, cells were additionally washes for 10 min in PBS 0.1% Tween 20 before incubation with the secondary antibody solution. For the proximity ligation assay (PLA) (Sigma-Aldrich, St. Louis, Mo.), cells were blocked for 30 min at 37° C. with the Blocking solution provided by the manufacturer before being incubated with the primary antibodies for 1 h at RT. Cells were washed three times and incubated with the PLA probes anti-rabbit PLUS and anti-mouse MINUS for 1 h at 37° C. After two PBS washes, cells were incubated with the Duolink Ligation solution for 30 min at 37° C. After two PBS washes, cells were incubated with the Duolink Amplification solution for 100 min at 37° C. The following antibodies were used: mouse monoclonal anti-V5 (R96025, Life Technologies, Carlsbad, Calif.) at 1:500 for IF and PLA, purified polyclonal rabbit anti-HA (H6908, St. Louis, Mo.) at 1:400 for IF and PLA and anti-mouse Alexa488-conjugated secondary antibody (Thermo Fisher Scientific, Waltham, Mass.) at 1:5000. Cells were stained for 2 min with Hoechst diluted to 10 μg ml-1 in PBS.
Cells and zebrafish embryos were imaged with an LSM710 confocal microscope and images were processed in ImageJ. Images of eye fusion phenotypes were taken on Leica M165 FC. Representations of brain vasculature were generated using Imaris software (BitPlane, Zurich, Switzerland). The percentage of PLA positive (PLA+) areas and DAPI positive (DAPI+) areas were calculated using ImageJ on images containing about 50 to 100 cells. The PLA+ area was measured after manually applying a fixed threshold. The DAPI+ area was measured after applying the “default” thresholding method in Image J.

[1] = system: plasma membrane of HEK293 cells; assay: Anti-V5 immunostaining of transiently expressed V5-tagged Wnt ligands in non-permeabilized cells; assay type: cell-based, human
Description: as §1, with “After two PBS washes, cells were incubated with the Duolink Amplification solution for 100 min at 37° C. The following antibodies were used: mouse monoclonal anti-V5 (R96025, Life Technologies, Carlsbad, Calif.) at 1:500 for IF and PLA, purified polyclonal rabbit anti-HA (H6908, St. Louis, Mo.) at 1:400 for IF and PLA and anti-mouse Alexa488-conjugated secondary antibody (Thermo Fisher Scientific, Waltham, Mass.) at 1:5000. Cells were stained for 2 min with Hoechst diluted to 10 μg ml-1 in PBS.” left out
It was determined how Wnt7 is specifically recognized within this signaling module, a question inherently complicated by the ubiquitous expression of Frizzled receptors and their Lrp5/6 co-receptors in vertebrate cells. […]

B1: Wnt7a^1-212: smaller NTD variant lacking the linker region (protein)
chain: LGASIICNKIPGLAPRQRAICQSRPDAIIVIGEGSQMGLDECQFQFRNGRWNCSALGERTVFGKELKVGSREAAFTYAIIAAGVAHAITAACTQGNLSDCGCDKEKQGQYHRDEGWKWGGCSADIRYGIGFAKVFVDAREIKQNARTLMNLHNNEAGRKILEENMKLECKCHGVSGSCTTK
modifications: left off: small tags and cut ends
notes: smaller NTD variant lacking the linker region
Reck binding (anti-V5/anti-HA PLA signal) (HA-Reck): did not bind Reck

B3: Wnt7a-V5: V5-tagged Wnt7a ligand transiently expressed in cells (protein)
chain: LGASIICNKIPGLAPRQRAICQSRPDAIIVIGEGSQMGLDECQFQFRNGRWNCSALGERTVFGKELKVGSREAAFTYAIIAAGVAHAITAACTQGNLSDCGCDKEKQGQYHRDEGWKWGGCSADIRYGIGFAKVFVDAREIKQNARTLMNLHNNEAGRKILEENMKLECKCHGVSGSCTTKTCWTTLPQFRELGYVLKDKYNEAVHVEPVRASRNKRPTFLKIKKPLSYRKPMDTDLVYIEKSPNYCEEDPVTGSVGTQGRACNKTAPQASGCDLMCCGRGYNTHQYARVWQCNCKFHWCCYVKCNTCSERTEMYTCK
modifications: left off: small tags and cut ends
notes: V5-tagged Wnt7a ligand transiently expressed in cells
immunodetection at the plasma membrane ([1]; GPR124−/−;RECK−/− cells): not at those of GPR124^−/−;RECK^−/− cells
immunodetection at the plasma membrane ([1]; WT, FZ1-10−/− and LRP5−/−;LRP6−/− cells): could be immunodetected at the plasma membrane

B4: Wnt7a′: garbled label of a Wnt7a domain variant, probably the C-terminal domain alone (protein)
chain: LGASIICNKIPGLAPRQRAICQSRPDAIIVIGEGSQMGLDECQFQFRNGRWNCSALGERTVFGKELKVGSREAAFTYAIIAAGVAHAITAACTQGNLSDCGCDKEKQGQYHRDEGWKWGGCSADIRYGIGFAKVFVDAREIKQNARTLMNLHNNEAGRKILEENMKLECKCHGVSGSCTTKTCWTTLPQFRELGYVLKDKYNEAVHVEPVRASRNKRPTFLKIKKPLSYRKPMDTDLVYIEKSPNYCEEDPVTGSVGTQGRACNKTAPQASGCDLMCCGRGYNTHQYARVWQCNCKFHWCCYVKCNTCSERTEMYTCK
Reck binding (anti-V5/anti-HA PLA signal) (HA-Reck): did not

B5: Wnt7a^S206A: mutant Wnt7a incapable of being palmitoylated at Serine 206 (protein)
chain: LGASIICNKIPGLAPRQRAICQSRPDAIIVIGEGSQMGLDECQFQFRNGRWNCSALGERTVFGKELKVGSREAAFTYAIIAAGVAHAITAACTQGNLSDCGCDKEKQGQYHRDEGWKWGGCSADIRYGIGFAKVFVDAREIKQNARTLMNLHNNEAGRKILEENMKLECKCHGVAGSCTTKTCWTTLPQFRELGYVLKDKYNEAVHVEPVRASRNKRPTFLKIKKPLSYRKPMDTDLVYIEKSPNYCEEDPVTGSVGTQGRACNKTAPQASGCDLMCCGRGYNTHQYARVWQCNCKFHWCCYVKCNTCSERTEMYTCK
modifications: left off: small tags and cut ends
Reck binding (anti-V5/anti-HA PLA signal) (HA-Reck): bound Reck efficiently

The next lines start with results.

Kd (Reck-CK-Fc; 25° C., Tris-NaCl buffer pH8, read-out: affinity of binding to Reck (ITC)): 1.2 µM
Molecule: VEVVRASRLRQPTFLRIKQLRSYQKPMET [pWnt7b]
Reck CK motifs required for binding (ITC with Reck-CK-Fc deletion variants) (Reck-CK-Fc; Reck-CK^ΔCK1-Fc to Reck-CK^ΔCK5-Fc): required Reck CK4 and CK5, but not CK1, CK2 and CK3

binding to Reck-CK-Fc (ITC) (Reck-CK-Fc; 25° C.): no binding
Molecule: pWnt3a: control equivalent linker peptide of Wnt3a (MVVEKHRESRGWVETLRPRYTYFKVPTER) [reference compound]

Reck binding (anti-V5/anti-HA PLA signal) (HA-Reck): did not bind Reck
B2: Wnt71-237: smaller NTD variant lacking the linker region (protein)
chain: LGASIICNKIPGLAPRQRAICQSRPDAIIVIGEGSQMGLDECQFQFRNGRWNCSALGERTVFGKELKVGSREAAFTYAIIAAGVAHAITAACTQGNLSDCGCDKEKQGQYHRDEGWKWGGCSADIRYGIGFAKVFVDAREIKQNARTLMNLHNNEAGRKILEENMKLECKCHGVSGSCTTKTCWTTLPQFRELGYVLKDKYNEAVH
modifications: left off: small tags and cut ends
notes: as for B1
